The target of test [1] is 表达于CHOK1细胞表面的人TIGIT (CHOK1/人TIGIT细胞, 吉满生物 GM-C01116) (human) (UniProt Q495A1). As to the kind of experiment: flow cytometry competition, inhibition of Biotinylated-CD155 (0.6μg/ml) binding to CHOK1/human TIGIT cells. A general note: In flow cytometry, cells or beads pass a laser one at a time.
Test [2] shares this target. As to the kind of experiment: flow cytometry on CHOK1/hTIGIT cells.
For test [3] the target is unchanged. As to the kind of experiment: flow cytometry competition, inhibition of Biotinylated-CD155 (0.6μg/ml) binding to CHOK1/hTIGIT cells.
The target of test [4] is Jurkat-hTIGIT-NFAT-CD226细胞上过表达的人TIGIT (human). Nature of the test: cell-based or functional assay.

Sequence of UniProt Q495A1 (Q495A1 22-244, one chain of several): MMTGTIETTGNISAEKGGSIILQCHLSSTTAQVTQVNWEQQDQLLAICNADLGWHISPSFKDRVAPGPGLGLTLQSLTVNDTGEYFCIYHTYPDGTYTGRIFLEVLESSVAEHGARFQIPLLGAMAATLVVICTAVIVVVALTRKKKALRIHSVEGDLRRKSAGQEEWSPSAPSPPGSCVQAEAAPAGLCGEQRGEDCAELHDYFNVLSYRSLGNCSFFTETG

In the case of IgG对照 (antibody), the 最大抑制 in test [1] is 3.03%. In addition, the 最大MFI in test [2] came to 229 MFI. Moreover, in test [3], the 最大抑制 turned out to be 6.36%. In test [4], this substance had a Max RLU of 7110 RLU and a 最大RLU of 6320 RLU.

Source of the values: patent CN114907476A.
